Target: T1, CD19 protein on the cell surface (细胞表面的CD19蛋白) (human, UniProt P15391 20-556)
T1 construct: whole, on cells; also called 人CD19
T1 sequence (looked up): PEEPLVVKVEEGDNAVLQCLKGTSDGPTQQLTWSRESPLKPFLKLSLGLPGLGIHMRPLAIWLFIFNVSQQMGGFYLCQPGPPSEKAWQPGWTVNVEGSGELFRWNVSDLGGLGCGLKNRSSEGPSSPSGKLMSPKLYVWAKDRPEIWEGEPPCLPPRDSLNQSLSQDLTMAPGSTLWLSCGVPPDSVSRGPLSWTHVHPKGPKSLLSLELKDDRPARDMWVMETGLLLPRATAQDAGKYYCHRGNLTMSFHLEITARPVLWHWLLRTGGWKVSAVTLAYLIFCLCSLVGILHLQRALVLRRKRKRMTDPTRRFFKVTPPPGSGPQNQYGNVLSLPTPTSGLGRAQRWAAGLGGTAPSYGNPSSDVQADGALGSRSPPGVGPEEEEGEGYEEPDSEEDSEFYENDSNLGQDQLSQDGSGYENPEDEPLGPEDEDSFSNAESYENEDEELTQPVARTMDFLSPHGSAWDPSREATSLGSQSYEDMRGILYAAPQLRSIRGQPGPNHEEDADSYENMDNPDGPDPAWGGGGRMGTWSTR
Assay: flow cytometry on cells; antibody purified from cell supernatant or ascites, compared with hybridoma supernatant

B1: CD19-6E1B8抗体 (anti-human CD19 monoclonal antibody, clone 6E1B8) (antibody, V domains shown)
VH: EVQLKESGPGLVAPSQSLSITCTVSGFSLTSHGVSWVRQPPGKGLEWLGVIWGDGRTSYHSALISRLSISKSDSKSQVFLKLNSLQTDDTATYYCAKKGAYYGSDYRYYAMDSWGQGTSVTVSS
VL: DIQLTQTPLSLPVSLGDQASISCRSSQSLVYSNGNTYLHWYLQKPGQSPKLLIYKASNRFSGVPDRFSGSGSGTDFTLKISRVEAEDLGVYFCSQSTHVPWTFGGGTKLEIKR
notes: It was purified on Protein G from ascites or from cell supernatant; also called CD19抗体; 抗CD19的单克隆抗体
  binding result: binds

Source: patent publication CN115960228A (UNIV XUZHOU MEDICAL, dated 2023)
